Data taken from patent US20210032365A1 (Chugai, published 2021).
Positions count from the first letter of the chain named. In names and notes the source's numbering stands.

T1: human C1s (human, UniProt P09871 16-688)
T1 construct: also called hC1s; serum-derived human C1s (CompTech)
T1 sequence: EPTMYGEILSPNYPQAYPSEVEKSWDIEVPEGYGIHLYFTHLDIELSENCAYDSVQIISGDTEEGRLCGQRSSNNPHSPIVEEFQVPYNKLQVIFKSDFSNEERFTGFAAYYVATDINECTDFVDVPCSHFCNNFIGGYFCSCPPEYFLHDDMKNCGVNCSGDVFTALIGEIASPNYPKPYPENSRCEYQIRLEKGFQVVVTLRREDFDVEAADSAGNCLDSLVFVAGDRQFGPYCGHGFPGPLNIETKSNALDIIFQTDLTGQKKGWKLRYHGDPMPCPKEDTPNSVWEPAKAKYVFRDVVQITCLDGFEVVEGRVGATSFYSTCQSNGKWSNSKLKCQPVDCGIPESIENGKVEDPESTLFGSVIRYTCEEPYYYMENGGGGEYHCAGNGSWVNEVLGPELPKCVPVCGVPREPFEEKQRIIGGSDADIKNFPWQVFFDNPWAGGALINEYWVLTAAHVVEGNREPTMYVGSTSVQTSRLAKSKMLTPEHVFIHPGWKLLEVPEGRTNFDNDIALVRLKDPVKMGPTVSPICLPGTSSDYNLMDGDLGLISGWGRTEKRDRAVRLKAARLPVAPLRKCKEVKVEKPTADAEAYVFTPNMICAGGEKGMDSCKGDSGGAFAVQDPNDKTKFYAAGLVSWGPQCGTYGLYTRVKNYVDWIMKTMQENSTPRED

T2: human C1s (human, UniProt P09871 16-688)
T2 construct: Analyte in the Biacore assays; also called hC1s; serum-derived human C1s (CompTech)
T2 sequence: T1 sequence

B1: C1_IPN92H0286-SG4GK/IPN93L0205-SK1 (antibody, human IgG4 S228P, kappa, name in Kabat numbering)
heavy: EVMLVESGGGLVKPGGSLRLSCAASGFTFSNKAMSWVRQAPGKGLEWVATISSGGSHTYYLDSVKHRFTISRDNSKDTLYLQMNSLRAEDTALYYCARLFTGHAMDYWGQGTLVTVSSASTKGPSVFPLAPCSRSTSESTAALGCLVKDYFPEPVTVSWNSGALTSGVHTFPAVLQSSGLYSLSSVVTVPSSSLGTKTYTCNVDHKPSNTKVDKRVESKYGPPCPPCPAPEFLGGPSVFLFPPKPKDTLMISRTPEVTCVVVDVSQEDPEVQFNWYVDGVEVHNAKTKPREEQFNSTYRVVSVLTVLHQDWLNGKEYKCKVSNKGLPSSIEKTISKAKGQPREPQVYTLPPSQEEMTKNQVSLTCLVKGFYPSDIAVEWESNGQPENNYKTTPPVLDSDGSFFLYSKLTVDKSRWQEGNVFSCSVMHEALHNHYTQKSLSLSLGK
light: QIVLTQSPATLSLSPGERATLSCTASSSVSSSRLHWYQQKPGKAPKLWIYSTSNLASGVPSRFSGSGSGTDYTLTISSLQPEDFATYYCHQYHRHPPITFGQGTKLEIKRTVAAPSVFIFPPSDEQLKSGTASVVCLLNNFYPREAKVQWKVDNALQSGNSQESVTEQDSKDSTYSLSSTLTLSKADYEKHKVYACEVTHQGLSSPVTKSFNRGEC
notes: also called IPN92H0286/IPN93L0205
B2: C1_IPN92H0288-SG4GK/IPN93L0212-SK1 (antibody, human IgG4 S228P, kappa, name in Kabat numbering, V domains shown)
VH: EVMLVESGGGLVKPGGSLRLSCAASGFTFSNYAMSWVRQAPGKGLEWVATISSGGSHTYELDSVDGRFTISRDNSKDTLYLQMNSLRAEDTALYYCARLFTKHAMDYWGQGTLVTVSS
VL: QIVLTQSPATLSLSPGERATLSCTASSEVSESRLHWYQQKPGKAPKLWIYSTSNLASGVPSRFSGSGSGTDYTLTISSLQPEDFATYYCHQYYRLHPITFGQGTKLEIKR
notes: VH = IPN009VH2 with Y59E/K64D/G98K/Y99H (Kabat); also called IPN92H0288/IPN93L0212
B3: C1_IPN92H0033-SG4GK/IPN93L0024-SK1 (antibody, human IgG4 S228P, kappa)
heavy: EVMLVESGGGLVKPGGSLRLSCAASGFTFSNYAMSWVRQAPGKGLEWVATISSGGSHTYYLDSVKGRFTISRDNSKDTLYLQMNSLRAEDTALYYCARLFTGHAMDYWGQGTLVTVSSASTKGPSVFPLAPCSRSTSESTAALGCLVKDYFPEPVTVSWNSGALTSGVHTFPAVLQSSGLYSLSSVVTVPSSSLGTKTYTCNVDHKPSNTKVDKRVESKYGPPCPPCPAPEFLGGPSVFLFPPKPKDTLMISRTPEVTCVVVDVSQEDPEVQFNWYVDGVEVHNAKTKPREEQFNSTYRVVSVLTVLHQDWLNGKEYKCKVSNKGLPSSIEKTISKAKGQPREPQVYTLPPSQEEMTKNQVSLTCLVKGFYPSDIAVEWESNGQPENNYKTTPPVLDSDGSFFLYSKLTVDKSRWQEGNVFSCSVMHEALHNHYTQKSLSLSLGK
light: B1 light with R33Y, H93Y, H95L, P96H
notes: VH Y99H, VL P95H against the parent (Kabat); also called IPN92H0033/IPN93L0024
B4: C1_IPN92H0160-SG4GK/IPN93L0024-SK1 (antibody, human IgG4 S228P, kappa, name in Kabat numbering, V domains shown)
VH: B2 VH with D65K, K102G
VL: B2 VL with E28S, E31S, R33Y
notes: Substitutions from IPN009VH2, Kabat numbering; also called IPN92H0160/IPN93L0024
B5: C1_IPN92H0061-SG4GK/IPN93L0024-SK1 (antibody, human IgG4 S228P, kappa, name in Kabat numbering, V domains shown)
VH: B2 VH with F29K, E60Y, D65K, K102G
VL: B2 VL with E28S, E31S, R33Y
notes: Substitutions from IPN009VH2, Kabat numbering; also called IPN92H0061/IPN93L0024
B6: C1_IPN92H0156-SG4GK/IPN93L0024-SK1 (antibody, human IgG4 S228P, kappa, name in Kabat numbering, V domains shown)
VH: B2 VH with Y59K, E60Y, D65K, K102G
VL: B2 VL with E28S, E31S, R33Y
notes: Substitutions from IPN009VH2, Kabat numbering; also called IPN92H0156/IPN93L0024
B7: C1_IPN92H0159-SG4GK/IPN93L0024-SK1 (antibody, human IgG4 S228P, kappa, name in Kabat numbering, V domains shown)
VH: B2 VH with E60D, D65K, K102G
VL: B2 VL with E28S, E31S, R33Y
notes: Substitutions from IPN009VH2, Kabat numbering; also called IPN92H0159/IPN93L0024
B8: C1_IPN92H0033-SG4GK/IPN93L0090-SK1 (antibody, human IgG4 S228P, kappa, name in Kabat numbering, V domains shown)
VH: B2 VH with E60Y, D65K, K102G
VL: B2 VL with E28S, E31S, R33K
notes: VL substitutions from IPN009VK3, Kabat numbering; also called IPN92H0033/IPN93L0090
B9: C1_IPN92H0117-SG4GK/IPN93L0024-SK1 (antibody, human IgG4 S228P, kappa, name in Kabat numbering, V domains shown)
VH: B2 VH with S53Q, E60Y, D65K, K102G
VL: B2 VL with E28S, E31S, R33Y
notes: Substitutions from IPN009VH2, Kabat numbering; also called IPN92H0117/IPN93L0024
B10: C1_IPN92H0157-SG4GK/IPN93L0024-SK1 (antibody, human IgG4 S228P, kappa, name in Kabat numbering, V domains shown)
VH: B2 VH with Y59R, E60Y, D65K, K102G
VL: B2 VL with E28S, E31S, R33Y
notes: Substitutions from IPN009VH2, Kabat numbering; also called IPN92H0157/IPN93L0024
B11: C1_IPN92H0147-SG4GK/IPN93L0024-SK1 (antibody, human IgG4 S228P, kappa, name in Kabat numbering, V domains shown)
VH: B2 VH with T58D, E60Y, D65K, K102G
VL: B2 VL with E28S, E31S, R33Y
notes: Substitutions from IPN009VH2, Kabat numbering; also called IPN92H0147/IPN93L0024
B12: C1_IPN92H0079-SG4GK/IPN93L0024-SK1 (antibody, human IgG4 S228P, kappa, name in Kabat numbering, V domains shown)
VH: B2 VH with Y32K, E60Y, D65K, K102G
VL: B2 VL with E28S, E31S, R33Y
notes: Substitutions from IPN009VH2, Kabat numbering; also called IPN92H0079/IPN93L0024
B13: C1_IPN92H0080-SG4GK/IPN93L0024-SK1 (antibody, human IgG4 S228P, kappa, name in Kabat numbering, V domains shown)
VH: B2 VH with Y32R, E60Y, D65K, K102G
VL: B2 VL with E28S, E31S, R33Y
notes: Substitutions from IPN009VH2, Kabat numbering; also called IPN92H0080/IPN93L0024
B14: C1_IPN92H0091-SG4GK/IPN93L0024-SK1 (antibody, human IgG4 S228P, kappa, name in Kabat numbering, V domains shown)
VH: B2 VH with M34K, E60Y, D65K, K102G
VL: B2 VL with E28S, E31S, R33Y
notes: Substitutions from IPN009VH2, Kabat numbering; also called IPN92H0091/IPN93L0024
B15: C1_IPN92H0145-SG4GK/IPN93L0024-SK1 (antibody, human IgG4 S228P, kappa, name in Kabat numbering, V domains shown)
VH: B2 VH with H57R, E60Y, D65K, K102G
VL: B2 VL with E28S, E31S, R33Y
notes: Substitutions from IPN009VH2, Kabat numbering; also called IPN92H0145/IPN93L0024
B16: C1_IPN92H0033-SG4GK/IPN93L0072-SK1 (antibody, human IgG4 S228P, kappa, name in Kabat numbering, V domains shown)
VH: B2 VH with E60Y, D65K, K102G
VL: B2 VL with E28S, S30K, E31S, R33Y
notes: VL substitutions from IPN009VK3, Kabat numbering; also called IPN92H0033/IPN93L0072
B17: C1_IPN92H0144-SG4GK/IPN93L0024-SK1 (antibody, human IgG4 S228P, kappa, name in Kabat numbering, V domains shown)
VH: B2 VH with H57K, E60Y, D65K, K102G
VL: B2 VL with E28S, E31S, R33Y
notes: Substitutions from IPN009VH2, Kabat numbering; also called IPN92H0144/IPN93L0024

What follows are binders tested against T1, human C1s (assay: SPR, Ab captured; pH 7.4, 1.2 mM Ca).
Protocol: (§1) Each antibody was captured onto the sensor surface by protein A/G. Antibody capture levels were aimed at 200 resonance unit (RU). Serum-derived human C1s (CompTech) or recombinant C1s prepared in EXAMPLE 1 was injected at 50 nM, followed by dissociation. The sensor surface was regenerated in each cycle with 10 mM Glycine-HCl, pH 1.5. […] The ratio of KD 5.8+ to KD 7.4+(“KD 5+/7+”) and that of KD 5.8− to KD 7.4+(“KD 5−/7+”) were calculated. When the KD 5+/7+ or KD 5−/7+ of a variant is larger than that of the parent antibody IPN009VH2-SG4GK/IPN009VK3-SK1, that variant is considered to be “pH”- or “pH and Ca”-dependent, respectively. When binding response in 5(+) buffer and/or in 5(−) buffer of a variant is much lower than that of IPN09VH2/IPN009VK3, that variant is also considered as “pH”- and/or “pH and Ca”-dependent. Therefore, such mutations are effective to generate “pH”- and/or “pH and Ca”-dependent antibody. To further enhance “pH” and/or “pH and Ca” dependency, a combination of histidine mutations was conducted. Antibodies with combinations of histidine mutations were evaluated using Biacore by the method described above.
(§2) C1_1IPN92H0033 (SEQ ID NO: 17)-SG4GK/IPN93L0024 (SEQ ID NO: 18)-SK1 (IPN92H0033/IPN93L0024) was selected for further optimization. Histidine, Lysine, Arginine, aspartic acid, glutamic acid, and glutamine scanning was conducted for CDRs and certain positions of FRs of IPN92H0033/IPN93L0024. Variants with a mutation were generated and purified, and evaluated using Biacore by the method mentioned above. All variants were evaluated using Biacore as mentioned above. Mutations that improved “pH” and/or “pH and Ca” dependency were selected for the combination.

Kd	koff	kon	Binder
1.58 nM	0.00156 s⁻¹	984000 M⁻¹ s⁻¹	B1
1.81 nM	0.00117 s⁻¹	648000 M⁻¹ s⁻¹	B2

What follows are binders tested against T2, human C1s (assay: SPR; KD at pH 5.8 (3 uM Ca) over KD at pH 7.4 (1.2 mM Ca)).
Protocol: as §1, §2

KD 5(-)/7(+)	Binder
1.83	B3
4.82	B4
0.79	B5
4.62	B6
3.57	B7
5.13	B8
2.26	B9
5.07	B10
1.58	B11
2.6	B12
2.86	B13
1.28	B14
1.36	B15
4.18	B16
1.54	B17

The binders below were run against T2, human C1s (assay: SPR (Biacore T200, 37C), Ab captured on protein A/G; pH 5.8, 1.2 mM Ca).
Protocol: as §1, §2

koff	kon	Kd	Binder
0.0045 s⁻¹	519000 M⁻¹ s⁻¹		B3
0.00634 s⁻¹	461000 M⁻¹ s⁻¹	13.7 nM	B4
0.022 s⁻¹	1.85e+06 M⁻¹ s⁻¹	11.9 nM	B5
0.00948 s⁻¹	641000 M⁻¹ s⁻¹	14.8 nM	B6
0.00699 s⁻¹	421000 M⁻¹ s⁻¹	16.6 nM	B7
0.0055 s⁻¹	577000 M⁻¹ s⁻¹	9.52 nM	B8
0.00799 s⁻¹	610000 M⁻¹ s⁻¹	13.1 nM	B9
0.012 s⁻¹	636000 M⁻¹ s⁻¹	18.8 nM	B10
0.00589 s⁻¹	445000 M⁻¹ s⁻¹	13.2 nM	B11
0.0162 s⁻¹	838000 M⁻¹ s⁻¹	19.3 nM	B12
0.0129 s⁻¹	814000 M⁻¹ s⁻¹	15.9 nM	B13
0.00634 s⁻¹	530000 M⁻¹ s⁻¹	12 nM	B14
0.0496 s⁻¹	2.58e+06 M⁻¹ s⁻¹	19.2 nM	B15
0.00529 s⁻¹	530000 M⁻¹ s⁻¹	9.12 nM	B16
0.0265 s⁻¹	1.13e+06 M⁻¹ s⁻¹	23.4 nM	B17

These binders were tested against T2, human C1s (assay: SPR (Biacore T200, 37C), Ab captured on protein A/G; pH 5.8, 3 uM Ca).
Protocol: as §1, §2

Kd	koff	kon	Binder
7.32 nM	0.00411 s⁻¹	562000 M⁻¹ s⁻¹	B4
5.43 nM	0.00344 s⁻¹	633000 M⁻¹ s⁻¹	B5
9.8 nM	0.00632 s⁻¹	645000 M⁻¹ s⁻¹	B6
7.36 nM	0.00401 s⁻¹	544000 M⁻¹ s⁻¹	B7
7.18 nM	0.00427 s⁻¹	595000 M⁻¹ s⁻¹	B8
7.71 nM	0.00542 s⁻¹	703000 M⁻¹ s⁻¹	B9
10.3 nM	0.00583 s⁻¹	564000 M⁻¹ s⁻¹	B10
3.23 nM			B11
8.75 nM	0.0052 s⁻¹	594000 M⁻¹ s⁻¹	B12
9.09 nM	0.00651 s⁻¹	717000 M⁻¹ s⁻¹	B13
3.43 nM	2.67 s⁻¹	7.8e+08 M⁻¹ s⁻¹	B14
6.4 nM	0.003 s⁻¹	469000 M⁻¹ s⁻¹	B15
5.72 nM	0.00553 s⁻¹	967000 M⁻¹ s⁻¹	B16
5.65 nM	0.00317 s⁻¹	562000 M⁻¹ s⁻¹	B17

The binders below were run against T2, human C1s (assay: SPR; KD at pH 5.8 (1.2 mM Ca) over KD at pH 7.4 (1.2 mM Ca)).
Protocol: as §1, §2

KD 5(+)/7(+)	Binder
3	B3
9	B4
1.7	B5
7	B6
8.1	B7
6.8	B8
3.8	B9
9.3	B10
6.4	B11
5.7	B12
5	B13
4.5	B14
4.1	B15
6.7	B16
6.4	B17
